Data as given in article PMC9352680, “A comprehensive thermodynamic model for RNA binding by the Saccharomyces cerevisiae Pumilio protein PUF4”.

Biological target: T1, PUF4 RNA-binding domain (Saccharomyces cerevisiae, UniProt P25339 537-888)
T1 sequence: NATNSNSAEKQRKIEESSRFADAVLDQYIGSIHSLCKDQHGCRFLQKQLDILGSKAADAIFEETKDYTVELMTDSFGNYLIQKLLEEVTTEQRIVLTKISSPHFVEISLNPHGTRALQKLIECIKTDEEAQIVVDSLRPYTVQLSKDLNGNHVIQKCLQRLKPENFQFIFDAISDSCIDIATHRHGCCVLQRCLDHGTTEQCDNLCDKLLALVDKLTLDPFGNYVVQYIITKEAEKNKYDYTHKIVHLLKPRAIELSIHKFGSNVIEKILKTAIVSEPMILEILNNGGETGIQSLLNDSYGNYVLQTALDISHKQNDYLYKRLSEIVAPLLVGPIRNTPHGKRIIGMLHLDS
Assay: Mg; RNA-MaP; 20 mM Na-HEPES pH 7.4, 30 mM KOAc, 0.75 mM MgCl2, 0.1% Tween-20, 5% glycerol, 0.1 mg/mL BSA, 2 mM DTT; 25 C; 0.0125-409.6 nM protein
Settings: tags: N-His6-TEV cleaved; C-SNAP kept, Cy3B-labelled; label: tethered on chip by stalled RNA polymerase

B1: Ie_S2_P3E.2_K3.1_C3.2_H3.1_[+1C]_A3.1_F3.1_T3.2 (ssRNA)
RNA: UUUGAUUAAUAUGAUAUCGUUCUUUCUCUUCGUAUAUAUAUUCUUUCUCGAUAUCAUAUUAAUCUUU
Question: For B1, which Kd is on record?
Answer: 34.5 nM

B2: Ic_S2_P3E.1_K3.1_C3.1_H3.1_A3.1_[T5A]_F3.1_[T7C]_T3.1 (ssRNA)
RNA: UUUGAUUAAUAUGAUAUCGUUCUUUCUUGUAAACAUUCUUUCUCGAUAUCAUAUUAAUCUUU
Question: B2 was tested. Which Kd did it give?
Answer: 327 nM

B3: Ib_S2_P3E.1_K3.1_C3.1_H3.1_A3.1_[A6G]_F3.1_[T7C]_T3.1 (ssRNA)
RNA: UUUGAUUAAUAUGAUAUCGUUCUUUCUUGUAUGCAUUCUUUCUCGAUAUCAUAUUAAUCUUU
Question: For B3, which Kd is on record?
Answer: 198 nM

B4: Ib_S2_P3E.1_K3.1_C3.1_H3.1_A3.1_[T5C]_F3.1_[T7A]_T3.1 (ssRNA)
RNA: UUUGAUUAAUAUGAUAUCGUUCUUUCUUGUACAAAUUCUUUCUCGAUAUCAUAUUAAUCUUU
Question: Which Kd does the source give for B4 here?
Answer: 58.4 nM

B5: Ie_S2_P3E.2_K3.1_C3.2_[+-2TCTCT]_H3.1_A3.1_F3.1_T3.2 (ssRNA)
RNA: UUUGAUUAAUAUGAUAUCGUUCUUUCUCUCUCUUUGUAUAUAUAUUCUUUCUCGAUAUCAUAUUAAUCUUU
Question: For B5, which Kd is on record?
Answer: 1.24 nM

B6: Ie_S2_P3E.2_K3.1_C3.2_H3.1_[+1TCTCT]_A3.1_F3.1_T3.2 (ssRNA)
RNA: UUUGAUUAAUAUGAUAUCGUUCUUUCUCUUUCUCUGUAUAUAUAUUCUUUCUCGAUAUCAUAUUAAUCUUU
Question: B6 was tested. Which Kd did it give?
Answer: 1.44 nM

B7: Ie_S2_P3E.2_K3.1_C3.2_[+-2CCTCT]_H3.1_A3.1_F3.1_T3.2 (ssRNA)
RNA: UUUGAUUAAUAUGAUAUCGUUCUUUCUCCCUCUUUGUAUAUAUAUUCUUUCUCGAUAUCAUAUUAAUCUUU
Question: With B7 as the binder, how does the Kd read?
Answer: 1.06 nM

B8: Ie_S2_P3E.2_K3.1_C3.2_[+-1TCTCT]_H3.1_A3.1_F3.1_T3.2 (ssRNA)
RNA: UUUGAUUAAUAUGAUAUCGUUCUUUCUCUUCUCUUGUAUAUAUAUUCUUUCUCGAUAUCAUAUUAAUCUUU
Question: With B8 as the binder, how does the Kd read?
Answer: 1.04 nM

B9: Ie_S2_P3E.2_K3.1_C3.2_H3.1_[+1CCTCT]_A3.1_F3.1_T3.2 (ssRNA)
RNA: UUUGAUUAAUAUGAUAUCGUUCUUUCUCUUCCUCUGUAUAUAUAUUCUUUCUCGAUAUCAUAUUAAUCUUU
Question: B9 was tested. Which Kd did it give?
Answer: 1.11 nM

B10: Ie_S2_P3E.2_K3.1_C3.2_[+-1CCCTT]_H3.1_A3.1_F3.1_T3.2 (ssRNA)
RNA: UUUGAUUAAUAUGAUAUCGUUCUUUCUCUCCCUUUGUAUAUAUAUUCUUUCUCGAUAUCAUAUUAAUCUUU
Question: B10 was tested. Which Kd did it give?
Answer: 0.572 nM

B11: Ie_S2_P3E.2_K3.1_C3.2_[+-1TTCCT]_H3.1_A3.1_F3.1_T3.2 (ssRNA)
RNA: UUUGAUUAAUAUGAUAUCGUUCUUUCUCUUUCCUUGUAUAUAUAUUCUUUCUCGAUAUCAUAUUAAUCUUU
Question: Which Kd does the source give for B11 here?
Answer: 0.987 nM

B12: Ie_S2_P3E.2_K3.1_C3.2_[+-2CCCTT]_H3.1_A3.1_F3.1_T3.2 (ssRNA)
RNA: UUUGAUUAAUAUGAUAUCGUUCUUUCUCCCCUUUUGUAUAUAUAUUCUUUCUCGAUAUCAUAUUAAUCUUU
Question: For B12, which Kd is on record?
Answer: 0.802 nM

B13: Ie_S2_P3E.2_K3.1_C3.2_[+-1CCTCT]_H3.1_A3.1_F3.1_T3.2 (ssRNA)
RNA: UUUGAUUAAUAUGAUAUCGUUCUUUCUCUCCUCUUGUAUAUAUAUUCUUUCUCGAUAUCAUAUUAAUCUUU
Question: B13 was tested. Which Kd did it give?
Answer: 0.967 nM

B14: Ie_S2_P3E.2_K3.1_C3.2_[+-2CTCT]_H3.1_A3.1_F3.1_T3.2 (ssRNA)
RNA: UUUGAUUAAUAUGAUAUCGUUCUUUCUCCUCUUUGUAUAUAUAUUCUUUCUCGAUAUCAUAUUAAUCUUU
Question: How did the Kd turn out when B14 was run?
Answer: 1.08 nM

B15: Ie_S2_P3E.2_K3.1_C3.2_[+-2CCTC]_H3.1_A3.1_F3.1_T3.2 (ssRNA)
RNA: UUUGAUUAAUAUGAUAUCGUUCUUUCUCCCUCUUGUAUAUAUAUUCUUUCUCGAUAUCAUAUUAAUCUUU
Question: B15 was tested. Which Kd did it give?
Answer: 0.683 nM

B16: Ie_S2_P3E.2_K3.1_C3.2_[+-1TTCC]_H3.1_A3.1_F3.1_T3.2 (ssRNA)
RNA: UUUGAUUAAUAUGAUAUCGUUCUUUCUCUUUCCUGUAUAUAUAUUCUUUCUCGAUAUCAUAUUAAUCUUU
Question: With B16 as the binder, how does the Kd read?
Answer: 1.28 nM

B17: Ie_S2_P3E.2_K3.1_C3.2_H3.1_[+1CCCT]_A3.1_F3.1_T3.2 (ssRNA)
RNA: UUUGAUUAAUAUGAUAUCGUUCUUUCUCUUCCCUGUAUAUAUAUUCUUUCUCGAUAUCAUAUUAAUCUUU
Question: B17 was tested. Which Kd did it give?
Answer: 0.515 nM

B18: Ie_S2_P3E.2_K3.1_C3.2_[+-1CTCT]_H3.1_A3.1_F3.1_T3.2 (ssRNA)
RNA: UUUGAUUAAUAUGAUAUCGUUCUUUCUCUCUCUUGUAUAUAUAUUCUUUCUCGAUAUCAUAUUAAUCUUU
Question: B18 was tested. Which Kd did it give?
Answer: 0.703 nM

B19: Ie_S2_P3E.2_K3.1_C3.2_[+-2CCCT]_H3.1_A3.1_F3.1_T3.2 (ssRNA)
RNA: UUUGAUUAAUAUGAUAUCGUUCUUUCUCCCCUUUGUAUAUAUAUUCUUUCUCGAUAUCAUAUUAAUCUUU
Question: Which Kd does the source give for B19 here?
Answer: 0.468 nM

B20: Ie_S2_P3E.2_K3.1_C3.2_[+-2TTCC]_H3.1_A3.1_F3.1_T3.2 (ssRNA)
RNA: UUUGAUUAAUAUGAUAUCGUUCUUUCUCUUCCUUGUAUAUAUAUUCUUUCUCGAUAUCAUAUUAAUCUUU
Question: With B20 as the binder, how does the Kd read?
Answer: 0.819 nM

B21: Ie_S2_P3E.2_K3.1_C3.2_H3.1_[+1CCTC]_A3.1_F3.1_T3.2 (ssRNA)
RNA: UUUGAUUAAUAUGAUAUCGUUCUUUCUCUUCCUCGUAUAUAUAUUCUUUCUCGAUAUCAUAUUAAUCUUU
Question: Which Kd does the source give for B21 here?
Answer: 52.3 nM

B22: Ie_S2_P3E.2_K3.1_C3.2_H3.1_[+1CTCT]_A3.1_F3.1_T3.2 (ssRNA)
RNA: UUUGAUUAAUAUGAUAUCGUUCUUUCUCUUCUCUGUAUAUAUAUUCUUUCUCGAUAUCAUAUUAAUCUUU
Question: With B22 as the binder, how does the Kd read?
Answer: 0.882 nM

B23: Ie_S2_P3E.2_K3.1_C3.2_[+-1CCTC]_H3.1_A3.1_F3.1_T3.2 (ssRNA)
RNA: UUUGAUUAAUAUGAUAUCGUUCUUUCUCUCCUCUGUAUAUAUAUUCUUUCUCGAUAUCAUAUUAAUCUUU
Question: Which Kd does the source give for B23 here?
Answer: 0.786 nM

B24: Ie_S2_P3E.2_K3.1_C3.2_[+-1CC]_H3.1_A3.1_F3.1_T3.2 (ssRNA)
RNA: UUUGAUUAAUAUGAUAUCGUUCUUUCUCUCCUGUAUAUAUAUUCUUUCUCGAUAUCAUAUUAAUCUUU
Question: For B24, which Kd is on record?
Answer: 0.923 nM

B25: Ie_S2_P3E.2_K3.1_C3.2_H3.1_[+1TC]_A3.1_F3.1_T3.2 (ssRNA)
RNA: UUUGAUUAAUAUGAUAUCGUUCUUUCUCUUUCGUAUAUAUAUUCUUUCUCGAUAUCAUAUUAAUCUUU
Question: How did the Kd turn out when B25 was run?
Answer: 39 nM

B26: Ie_S2_P3E.2_K3.1_C3.2_H3.1_[+1CTT]_A3.1_F3.1_T3.2 (ssRNA)
RNA: UUUGAUUAAUAUGAUAUCGUUCUUUCUCUUCUUGUAUAUAUAUUCUUUCUCGAUAUCAUAUUAAUCUUU
Question: For B26, which Kd is on record?
Answer: 1.32 nM

B27: Ie_S2_P3E.2_K3.1_C3.2_H3.1_[+1CCT]_A3.1_F3.1_T3.2 (ssRNA)
RNA: UUUGAUUAAUAUGAUAUCGUUCUUUCUCUUCCUGUAUAUAUAUUCUUUCUCGAUAUCAUAUUAAUCUUU
Question: Which Kd does the source give for B27 here?
Answer: 1.05 nM

B28: Ie_S2_P3E.2_K3.1_C3.2_[+-1CCC]_H3.1_A3.1_F3.1_T3.2 (ssRNA)
RNA: UUUGAUUAAUAUGAUAUCGUUCUUUCUCUCCCUGUAUAUAUAUUCUUUCUCGAUAUCAUAUUAAUCUUU
Question: With B28 as the binder, how does the Kd read?
Answer: 0.662 nM

B29: Ie_S2_P3E.2_K3.1_C3.2_H3.1_[+1TCT]_A3.1_F3.1_T3.2 (ssRNA)
RNA: UUUGAUUAAUAUGAUAUCGUUCUUUCUCUUUCUGUAUAUAUAUUCUUUCUCGAUAUCAUAUUAAUCUUU
Question: How did the Kd turn out when B29 was run?
Answer: 1.12 nM

B30: Ie_S2_P3E.2_K3.1_C3.2_H3.1_[+1CCC]_A3.1_F3.1_T3.2 (ssRNA)
RNA: UUUGAUUAAUAUGAUAUCGUUCUUUCUCUUCCCGUAUAUAUAUUCUUUCUCGAUAUCAUAUUAAUCUUU
Question: Which Kd does the source give for B30 here?
Answer: 31.2 nM

B31: Ie_S2_P3E.2_K3.1_C3.2_H3.1_[+1TTC]_A3.1_F3.1_T3.2 (ssRNA)
RNA: UUUGAUUAAUAUGAUAUCGUUCUUUCUCUUUUCGUAUAUAUAUUCUUUCUCGAUAUCAUAUUAAUCUUU
Question: B31 was tested. Which Kd did it give?
Answer: 36.5 nM

B32: Ie_S2_P3E.2_K3.1_C3.2_[+-2TCT]_H3.1_A3.1_F3.1_T3.2 (ssRNA)
RNA: UUUGAUUAAUAUGAUAUCGUUCUUUCUCUCUUUGUAUAUAUAUUCUUUCUCGAUAUCAUAUUAAUCUUU
Question: B32 was tested. Which Kd did it give?
Answer: 1.02 nM

B33: Ie_S2_P3E.2_K3.1_C3.2_H3.1_[+1TTT]_A3.1_F3.1_T3.2 (ssRNA)
RNA: UUUGAUUAAUAUGAUAUCGUUCUUUCUCUUUUUGUAUAUAUAUUCUUUCUCGAUAUCAUAUUAAUCUUU
Question: B33 was tested. Which Kd did it give?
Answer: 1.33 nM

B34: Ie_S2_P3E.2_K3.1_C3.2_H3.1_[+1TCC]_A3.1_F3.1_T3.2 (ssRNA)
RNA: UUUGAUUAAUAUGAUAUCGUUCUUUCUCUUUCCGUAUAUAUAUUCUUUCUCGAUAUCAUAUUAAUCUUU
Question: How did the Kd turn out when B34 was run?
Answer: 44.3 nM
